Paper PMC12521527, “In vivo self-assembled nano-PROTAC for the dual degradation of AR and HSP90 to overcome castration-resistant prostate cancer resistance” (Signal Transduction and Targeted Therapy, 2025)
Numbered stars: 1 amine (or outer) side, 2 acyl side, 3 side chain; on linkers, the order of the positions; unused ones are H or OH. Square brackets hold non-standard residues; d marks the D form. Peptide text beside a SMILES is read from it. * marks the point of attachment. X2 = CC1(C)C(=O)N(c2ccc(C#N)c(C(F)(F)F)c2)C(=S)N1c1ccc(C(=O)*)c(F)c1; X1 = O=C1CCC(N2C(=O)c3cccc(N(CC(=O)[*:2])[*:1])c3C2=O)C(=O)N1; EuK = O=C(O)CC[C@H](NC(=O)N[C@@H](CCCCN*)C(=O)O)C(=O)O; 2Nal = N[C@@H](Cc1ccc2ccccc2c1)C(=O)O

What was measured:
[1] = tested on: AR; assay: Western blot AR degradation in 22Rv1 (PSMA^KD) cells; type: cell-based; conditions: 20 μM, 48 h
Protocol: All uncropped blots are presented in Supplementary Fig. 26. j, k Representative 22Rv1 cell CLSM images of the degradation of AR after incubation with FITC-labeled Psa-AR for 12 h and quantitative analysis, n = 3 per group. Scale bar: 10 μm. l, m Representative 22Rv1 cell CLSM images of the degradation of HSP90 after incubation with FITC-labeled Psa-AR for 12 h and quantitative analysis, n = 3 per group. Scale bar: 10 μm. n AR-V7 expression in 22Rv1 cells after treatment with PBS, P-AR (20 μM), Psa-AR (20 μM) or Psa-AR (20 μM) combined with MG132 (2 μM) for 48 h, as determined by western blotting. β-Actin was used as an internal reference. o Results of apoptosis in 22Rv1 cells treated with PBS, P-AR (20 μM), or Psa-AR (20 μM) for 48 h, as detected by flow cytometry.
The pretreated cells were resuspended in lysis buffer containing 50 mM Tris-HCl (pH 8.0), 150 mM NaCl, 1% (v/v) Triton X-100, and protease inhibitors. The protein concentration was determined via a BCA kit (Applygen). Each sample ([…]) was subjected to SDS‒PAGE and then transferred to a PVDF membrane. The blots were blocked in 5% (wt/v) blocking buffer. After washing three times with TBST buffer (10 mM TBS solution containing 0.1% (v/v) Tween-20), the blots were incubated with primary antibodies at 4 °C on a shaker for 16 h. […]

[2] = In vivo and ex vivo fluorescence imaging (biodistribution); parameters: species or system BALB/c nude mice; conditions: Cy7-labeled, 30 mg/kg intravenous
Protocol: Fig. 5 In vivo evaluation of Psa-AR enrichment and retention. a Representative immunohistochemical (IHC) staining of PSMA and AR expression in tumor tissues from three patients with prostate cancer before and after androgen deprivation therapy. The expression levels of PSMA and AR were assessed in serial sections at identical locations. Scale bars: 40 μm. b In vivo fluorescence images of 22Rv1 xenograft mice after treatment with Cy7-labeled P-AR and Psa-AR (30 mg/kg in 200 μL of PBS) for 2 h and 24 h. c Biodistribution in the tumors and main organs of 22Rv1 xenograft mice after injection with Cy7-labeled Psa-AR (30 mg/kg in 200 μL of PBS) for 24 h. (H Heart, Li Liver, Sp Spleen, Lu Lung, Ki Kidney, T Tumor). d Quantitative analysis of the fluorescence images in (c), n = 3 per group
BALB/c nude mice (6–8 weeks old, 16–18 g) were housed in a specific-pathogen-free (SPF) environment. All experiments were conducted in accordance with the Guidelines for the Management and Use of Laboratory Animals and were approved by the Animal Research Committee of the National Center for Nanoscience and Technology (NCNST 21-202503-0020). […] For ex vivo fluorescence imaging, 22Rv1 xenograft mice were intravenously injected with Cy7-labeled Psa-AR (30 mg/kg in 200 µL of PBS) and sacrificed 24 h post-injection to excise major organs (heart, liver, spleen, lung, and kidney) and tumors.

[3] = In vivo biocompatibility in healthy mice; conditions: healthy BALB/c mice
Protocol: Fig. 7 In vivo antitumor efficacy of Psa-AR. a Schematic illustration of the tumor inoculation and treatment protocol for 22Rv1 xenograft mice. (n = 6 per group) b Observation of the tumor inhibitory effect on 22Rv1 xenograft mice in PBS, enzalutamide, pimitespib, Enza, Pimi, and Psa-AR (30 mg/kg in 200 μL of PBS) over 20 days of treatment. (Enza, Pimi: Combination therapy with enzalutamide (AR antagonist) and Pimitespib (HSP90 inhibitor)). c Kaplan‒Meier survival curves of 22Rv1 xenograft mice in different groups over 20 days of treatment. d Changes in the body weights of 22Rv1 xenograft mice in different groups over 20 days of treatment. e Terminal deoxynucleotidyl transferase (TdT) dUTP nick-end labeling (TUNEL) staining of tumors after treatment with PBS, enzalutamide, pimitespib, ENZ, Pimi or Psa-AR (30 mg/kg in 200 μL of PBS) for 20 days. Scale bar: 50 μm. f Hematoxylin‒eosin (H&E) staining of the main organs after treatment with PBS or Psa-AR (30 mg/kg in 200 μL of PBS) for 24 h. Scale bar: 50 μm. g–j Blood biochemistry data, including ALT, AST, ALP, TP, ALB, GLOB, BUN, and CRE levels, of the mice after treatment with Psa-AR (20 mg/kg in 200 μL of PBS) for 1 day or 14 days (n = 3 per group). p values were determined via one-way ANOVA followed by post hoc Tukey’s test. The data are presented as the means ± SDs
To thoroughly evaluate the in vivo biocompatibility of the Psa-AR degradation system, we performed comprehensive toxicological assessments in healthy BALB/c mice. At 24 h post-administration of either PBS or Psa-AR (30 mg/kg, n = 3 per group), we collected major organs (heart, liver, spleen, lungs, and kidneys) along with serum samples for histopathological and biochemical analysis. […] These comprehensive biosafety evaluations confirmed that the Psa-AR system maintains exceptional biocompatibility, with no acute toxicity observed in vital organs or systemic metabolic pathways. The combined histopathological and biochemical evidence strongly supports the clinical translatability of this targeted protein degradation platform.

With CC1(C)C(=O)N(c2ccc(C#N)c(C(F)(F)F)c2)C(=S)N1c1ccc(C(=O)NCCCC[C@H](NC(=O)CNc2cccc3c2C(=O)N(C2CCC(=O)NC2=O)C3=O)C(=O)N[C@@H](CS)C(=O)N[C@@H](CCC(N)=O)C(=O)N[C@@H](Cc2ccc(O)cc2)C(=O)N[C@@H](CC(N)=O)C(=O)N[C@@H](CCC(N)=O)C(=O)N[C@@H](Cc2ccc(O)cc2)C(=O)N[C@@H](Cc2ccc(O)cc2)C(=O)N[C@@H](Cc2ccc3ccccc3c2)C(=O)NCCCC[C@H](NC(=O)N[C@@H](CCC(=O)O)C(=O)O)C(=O)O)c(F)c1 (stereo partly drawn) [Psa-AR] (H-[X1]K(X2)CQYNQYY[2Nal]-EuK) the “AR protein degradation in PSMA-knockdown cells” value [1] was “failed to induce significant protein degradation”, the “tumor deposition relative to P-AR” value ([2]; 2 h, 22Rv1 xenograft mice) was 4 fold and the “tumor retention, residual signal at 24 h” value ([2]; 24 h) was 78%. The “routine blood analysis (WBC, NEU, LYM, RBC, PLT, HGB, MPV)” value [3] was “no obvious changes were detected”, the “serum biochemistry (ALT, AST, ALP, TP, ALB, GLOB, BUN, CRE) versus PBS” value ([3]; 30 mg/kg, 24 h, n = 3) was “not significantly different between the groups” and the “H&E histopathology of major organs (heart, liver, spleen, lungs, kidneys)” value ([3]; 30 mg/kg, 24 h post-administration, n = 3) was “no observable pathological changes”.
